Target: T1, H1N1 WSN NP protein (nucleoprotein of influenza A/WSN/1933), wild type (influenza A virus A/WSN/1933 (H1N1)), P15682
T1 chain: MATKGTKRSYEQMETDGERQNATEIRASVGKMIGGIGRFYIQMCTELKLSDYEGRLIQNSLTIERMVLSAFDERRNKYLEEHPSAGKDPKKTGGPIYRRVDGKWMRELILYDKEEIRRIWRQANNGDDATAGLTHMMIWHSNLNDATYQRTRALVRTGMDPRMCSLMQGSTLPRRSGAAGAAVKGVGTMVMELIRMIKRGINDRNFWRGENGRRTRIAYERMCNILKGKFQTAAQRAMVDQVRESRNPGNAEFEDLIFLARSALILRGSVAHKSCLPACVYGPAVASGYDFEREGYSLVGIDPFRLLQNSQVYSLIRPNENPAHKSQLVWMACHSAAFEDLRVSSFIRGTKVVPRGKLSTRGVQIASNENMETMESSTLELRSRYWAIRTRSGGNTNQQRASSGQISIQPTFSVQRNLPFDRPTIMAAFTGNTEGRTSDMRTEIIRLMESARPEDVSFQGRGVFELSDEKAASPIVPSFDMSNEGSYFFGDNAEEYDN
Experiment: SEC
Conditions: remark: other sources report otherwise

B1: H1N1 WSN NP protein (nucleoprotein of influenza A/WSN/1933), wild type, P15682 1-498 (natural protein)
chain: T1 chain
Binder B1 has a half-life (t1/2) of the dissociation of trimers to monomers of 10 h and a stoichiometry N of 3.

Source: PMC3531806
